Experimental findings from the Human Domainome abundance scans (Beltran et al. 2025) are described below.

± gives the uncertainty stated by the source.

Sequences and labels used below:
B1: Zinc finger MYM-type protein 3, residues 589 to 668; numbered along this chain, Q14202 (parent)
chain: LSCHYCHSLFSGKPEVLDWQDQVFQFCCRDCCEDFKRLRGVVSQCEHCRQEKLLHEKLRFSGVEKSFCSEGCVLLYKQDF

The variants in the data set derive from B1. Description: abundance fitness (aPCA) (normalised: wild type 0, dead -1); higher = more abundant; growth selection in yeast, the domain comes from the species named. The conditions noted are these: Homo sapiens.
For LSCHYCHSLFSGKPEVLDWQDQVFQFCCRDCCEDFKRLRGVVSQCEHCRQEKLLHEALRFSGVEKSFCSEGCVLLYKQDF [K57A], the abundance fitness is -0.487 ± 0.14.

For the variant LSCHYCHSLFSGKPEVLDWQDQVFQFCCRDCCEDFKRLRGVVSQCEHCRQEKLLHEKLRFSGVEKSCCSEGCVLLYKQDF [F67C], the abundance fitness was 0.283 ± 0.18.

Take LSCHYCHSLFSGKPEVLDWQDQVFQFCCRDCCEDFKRLRGVVSQCEHCRQEKLLHEKLRFSGVEKSRCSEGCVLLYKQDF [F67R]: the abundance fitness was -0.497 ± 0.12.

LSCHYCHSLFSGKPEVLDWQDQVFQFKCRDCCEDFKRLRGVVSQCEHCRQEKLLHEKLRFSGVEKSFCSEGCVLLYKQDF [C27K]: the abundance fitness was -0.882 ± 0.096.

With LSCHYCHSLFSGKPEVLDWQDQVFQFCCRDCCEDFKRLRGVVSQCEHCRQEKLLHEKLRFSGVEKSFCSEGCVLLMKQDF [Y76M], the abundance fitness is -0.524 ± 0.34.

With LSCHYCHSLFSGKPEVLDWQDQVFQFCCRDCCEDFKRLRGVVSQCEHCRQEKLLHEKLRFSGVEKSFCSEGCVLLYTQDF [K77T], the abundance fitness was -0.108 ± 0.16.

On to LSCHYCHSLFSGTPEVLDWQDQVFQFCCRDCCEDFKRLRGVVSQCEHCRQEKLLHEKLRFSGVEKSFCSEGCVLLYKQDF [K13T], for which the abundance fitness is -0.081 ± 0.064.

On to LSCHYCHSLFSGKPEVLDMQDQVFQFCCRDCCEDFKRLRGVVSQCEHCRQEKLLHEKLRFSGVEKSFCSEGCVLLYKQDF [W19M], for which the abundance fitness was determined as 0.48 ± 0.047.

Take LSCHYCHSLFSGKPEVLDWQDQVFQFCCRDCCEDFKRLRGVVSQCEHCRQEKLLHEKLRFSGREKSFCSEGCVLLYKQDF [V63R]: the abundance fitness was -0.285 ± 0.11.

With LSCHYCHSLFSGKPEVLDWQDQVFQFCCRDCCEDFKRLRGVVSQCEHCRQEMLLHEKLRFSGVEKSFCSEGCVLLYKQDF [K52M], the abundance fitness was -0.118 ± 0.28.

Turning to LSCHYCHSLFGGKPEVLDWQDQVFQFCCRDCCEDFKRLRGVVSQCEHCRQEKLLHEKLRFSGVEKSFCSEGCVLLYKQDF [S11G], the abundance fitness is -0.169 ± 0.041.

Take LSCHYCHSLFMGKPEVLDWQDQVFQFCCRDCCEDFKRLRGVVSQCEHCRQEKLLHEKLRFSGVEKSFCSEGCVLLYKQDF [S11M]: the abundance fitness is -0.426 ± 0.072.

As to LSCHYCHSLFSGKPEVLDWQDQVFQFCCRDCCEDFKRLRGVVSQCEHCRQEKLLHEKLRFMGVEKSFCSEGCVLLYKQDF [S61M], the abundance fitness came out at 0.02 ± 0.17.

For the variant LSCHYCHSLFSGKPEVLDWQDQVFQFCCRDCCEDFKRLRGVVSQCEHCRQEKLLHEKLRFPGVEKSFCSEGCVLLYKQDF [S61P], the abundance fitness was -0.424 ± 0.24.

As to LSCHYCHSLFSGKPEVLDWQDQVFQFCCRDCCEDFKRLRGVVSQCEHCRQEKLLHEKLSFSGVEKSFCSEGCVLLYKQDF [R59S], the abundance fitness was determined as 0.541 ± 0.13.

Consider LSCHYCHSLFSGKPEVLDWQDQVFQFCCRDCCEDFKRLRGVVSQCEHCRQEKLAHEKLRFSGVEKSFCSEGCVLLYKQDF [L54A], for which the abundance fitness is -0.41 ± 0.16.

For the variant LSCHYCHSLFSGKPEVLDWQDQVFQFCCRDCCEDFKRLRGVVSQCEHCRQEKLLNEKLRFSGVEKSFCSEGCVLLYKQDF [H55N], the abundance fitness came out at 0.027 ± 0.24.

With LSCHYCHSLFSGKPEVLDWQDQVFQFCCRDCCEDFKRCRGVVSQCEHCRQEKLLHEKLRFSGVEKSFCSEGCVLLYKQDF [L38C], the abundance fitness stood at 0.11 ± 0.16.

In the case of LSCHYCHSLFSGKPEVLDWQDQKFQFCCRDCCEDFKRLRGVVSQCEHCRQEKLLHEKLRFSGVEKSFCSEGCVLLYKQDF [V23K], the abundance fitness was found to be 0.268 ± 0.055.

LSCHYQHSLFSGKPEVLDWQDQVFQFCCRDCCEDFKRLRGVVSQCEHCRQEKLLHEKLRFSGVEKSFCSEGCVLLYKQDF [C6Q]: the abundance fitness is -0.892 ± 0.12.

For LSCHYCHSLFSGKPEVLDWQDQVFQFCCRDCCEDFKRLRGVVSQCEHCRQEKLLHEKLRFSGVEKKFCSEGCVLLYKQDF [S66K], the abundance fitness came to 0.067 ± 0.11.

As for LSCHYCHSLFSGKPEVLDWQDQVFQFCCRDCCEDFKRLRGVVSQCEHCRQEKLLHEKLRFSGVEKSFCSEGCVLLYKIDF [Q78I], the abundance fitness is -0.34 ± 0.42.

With LSCHYCHSLWSGKPEVLDWQDQVFQFCCRDCCEDFKRLRGVVSQCEHCRQEKLLHEKLRFSGVEKSFCSEGCVLLYKQDF [F10W], the abundance fitness was -0.298 ± 0.054.

For LSCHYCHSLFSGKPEVLDWQDHVFQFCCRDCCEDFKRLRGVVSQCEHCRQEKLLHEKLRFSGVEKSFCSEGCVLLYKQDF [Q22H], the abundance fitness came out at 0.269 ± 0.077.

LSCHYCHSLFSGKPEVLDWQDTVFQFCCRDCCEDFKRLRGVVSQCEHCRQEKLLHEKLRFSGVEKSFCSEGCVLLYKQDF [Q22T]: the abundance fitness was 0.174 ± 0.044.

In the case of LSCHYCHSLFSGKPEVLDWSDQVFQFCCRDCCEDFKRLRGVVSQCEHCRQEKLLHEKLRFSGVEKSFCSEGCVLLYKQDF [Q20S], the abundance fitness came out at 0.245 ± 0.047.

Regarding LSCHYCHSLFSGKPEVLDWFDQVFQFCCRDCCEDFKRLRGVVSQCEHCRQEKLLHEKLRFSGVEKSFCSEGCVLLYKQDF [Q20F], the abundance fitness was 0.198 ± 0.1.

Take LSCHYCHSLFSGKPEVLDWKDQVFQFCCRDCCEDFKRLRGVVSQCEHCRQEKLLHEKLRFSGVEKSFCSEGCVLLYKQDF [Q20K]: the abundance fitness amounted to 0.456 ± 0.052.

Regarding LSCHYCHSLFSGKPEVLDWMDQVFQFCCRDCCEDFKRLRGVVSQCEHCRQEKLLHEKLRFSGVEKSFCSEGCVLLYKQDF [Q20M], the abundance fitness amounted to 0.394 ± 0.053.

On to LSCHYCHSLFSGKPEVLDWQDQVFQFCCRDCCEKFKRLRGVVSQCEHCRQEKLLHEKLRFSGVEKSFCSEGCVLLYKQDF [D34K], for which the abundance fitness is -0.008 ± 0.063.

Take LSCHYCHSLFSGKPEVLDWQDQVFQFCCRDCCEIFKRLRGVVSQCEHCRQEKLLHEKLRFSGVEKSFCSEGCVLLYKQDF [D34I]: the abundance fitness is -0.18 ± 0.11.

In the case of LSCHYCHSLFSGKPEVLDWQDQVFQFCCRDCCERFKRLRGVVSQCEHCRQEKLLHEKLRFSGVEKSFCSEGCVLLYKQDF [D34R], the abundance fitness was -0.093 ± 0.042.

Take LSCHYCHSLFSGKPESLDWQDQVFQFCCRDCCEDFKRLRGVVSQCEHCRQEKLLHEKLRFSGVEKSFCSEGCVLLYKQDF [V16S]: the abundance fitness stood at 0.011 ± 0.049.

With LSCHYCHSLFSGKPEVLDWQDQVFQFCCRDCCEDFKRLRGVVRQCEHCRQEKLLHEKLRFSGVEKSFCSEGCVLLYKQDF [S43R], the abundance fitness is -0.174 ± 0.1.

Turning to LSCHYCHSLFSGKPEVLDWQDQVFQFCCRDCCEDFKRLRGVVSQCYHCRQEKLLHEKLRFSGVEKSFCSEGCVLLYKQDF [E46Y], the abundance fitness is -0.354 ± 0.38.
